Results on 3 molecules are retold here after US20250018014A1, “METHOD FOR TREATING AND/OR PREVENTING REGNASE-1-RELATED DISEASE” (OSAKA UNIVERSITY, priority 2018, published 2025).

In assay [1] the target is T1, Regnase-1 phosphorylation by TBK1 (Homo sapiens, UniProt Q5D1E8).
T1 construct: GST (N, cleaved yes); made in house; host or cells: Expi293 cells
T1 sequence (Q5D1E8 1-599): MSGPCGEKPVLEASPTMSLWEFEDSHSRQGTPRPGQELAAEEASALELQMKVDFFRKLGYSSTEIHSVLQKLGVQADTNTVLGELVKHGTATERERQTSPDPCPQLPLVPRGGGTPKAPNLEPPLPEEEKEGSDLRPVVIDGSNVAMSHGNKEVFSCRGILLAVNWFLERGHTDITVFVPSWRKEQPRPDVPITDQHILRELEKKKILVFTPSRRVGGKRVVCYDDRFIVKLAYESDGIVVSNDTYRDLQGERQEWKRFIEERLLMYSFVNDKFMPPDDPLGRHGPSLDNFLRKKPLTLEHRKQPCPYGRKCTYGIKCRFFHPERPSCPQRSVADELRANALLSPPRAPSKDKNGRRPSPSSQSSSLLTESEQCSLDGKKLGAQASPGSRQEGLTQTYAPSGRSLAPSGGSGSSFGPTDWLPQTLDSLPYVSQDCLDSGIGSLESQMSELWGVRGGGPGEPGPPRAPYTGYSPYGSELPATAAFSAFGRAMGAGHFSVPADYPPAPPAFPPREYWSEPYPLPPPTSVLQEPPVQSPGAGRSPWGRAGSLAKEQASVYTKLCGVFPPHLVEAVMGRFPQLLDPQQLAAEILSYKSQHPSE
Briefly: Inhibitory activity of anti-Regnase-1 antibodies against Regnase-1 phosphorylation by TBK1 (Phos-tag gel, western blotting). Conditions: antibody at final concentrations of 16.7 μg/mL and 5.0 μg/mL; relative to Control group. In kind it is biochemical. As to the method: To a solution (ATP buffer) containing Kinase Assay Buffer III (manufactured by SignalChem) supplemented with 2 mM DTT, 100 μM sodium vanadate, 2 mM manganese chloride, and 15 μM ATP, dephosphorylated Regnase-1 was mixed at 150 nM. Four microliters of this solution and 4 μL of HEPES Buffered Saline containing 50 μg/mL or 15 μg/mL of anti-Regnase-1 antibody were mixed, and this was allowed to react for one hour. This reaction solution was mixed with 4 μL of ATP buffer containing 150 nM of each kinase (IKKβ or TBK1), and further reacted for one hour. After the reaction, 4 μL of 4× Laemmli Sample buffer (manufactured by Bio-Rad) was added and this mixture was incubated at 95° C. for five minutes for protein denaturation treatment. This sample was ice-cooled for three minutes, and 10 μL of it was added to SuperSep Phos-tag 7.5% 17 wells (manufactured by Wako) placed in EasySeparator (manufactured by Wako). As a marker, 10 μL of WIDE-VIEW Prestained Protein Size Marker III (manufactured by Wako) was added, and the EasySeparator was filled with Tris-Glycine SDS buffer (manufactured by Takara). After electrophoresis at 175 V for 70 minutes, this was washed with 10% Tris-Glycine SDS buffer containing 5 mM EDTA and 20% MeOH for 10 minutes. After two further washings, washing was performed with 10% Tris-Glycine SDS buffer containing 20% MeOH for ten minutes. The washed gel was placed in the Trans-Blot Turbo Transfer Pack (manufactured by Bio-Rad), and transferred using the BioRad Transfer Turbo (manufactured by Bio-Rad). […] Chemiluminescence was detected using ImageQuant LAS4000 mini (manufactured by GE Healthcare).
A band for phosphorylated Regnase-1 was detected due to treatment with each kinase (FIG. 33A). Band densities were measured with Image Quant-TL (manufactured by GE Healthcare). The relative value for the band density of the sample to which each compound was added was calculated, considering the band density of the kinase-added sample of the Control group, to which no compound was added, as 1. […]

Assay [2] addresses T2, FL_Reg1 (human full-length Regnase-1) (Homo sapiens, UniProt Q5D1E8).
T2 construct: made in house; host or cells: Expi293 cells
T2 sequence (Q5D1E8 1-599): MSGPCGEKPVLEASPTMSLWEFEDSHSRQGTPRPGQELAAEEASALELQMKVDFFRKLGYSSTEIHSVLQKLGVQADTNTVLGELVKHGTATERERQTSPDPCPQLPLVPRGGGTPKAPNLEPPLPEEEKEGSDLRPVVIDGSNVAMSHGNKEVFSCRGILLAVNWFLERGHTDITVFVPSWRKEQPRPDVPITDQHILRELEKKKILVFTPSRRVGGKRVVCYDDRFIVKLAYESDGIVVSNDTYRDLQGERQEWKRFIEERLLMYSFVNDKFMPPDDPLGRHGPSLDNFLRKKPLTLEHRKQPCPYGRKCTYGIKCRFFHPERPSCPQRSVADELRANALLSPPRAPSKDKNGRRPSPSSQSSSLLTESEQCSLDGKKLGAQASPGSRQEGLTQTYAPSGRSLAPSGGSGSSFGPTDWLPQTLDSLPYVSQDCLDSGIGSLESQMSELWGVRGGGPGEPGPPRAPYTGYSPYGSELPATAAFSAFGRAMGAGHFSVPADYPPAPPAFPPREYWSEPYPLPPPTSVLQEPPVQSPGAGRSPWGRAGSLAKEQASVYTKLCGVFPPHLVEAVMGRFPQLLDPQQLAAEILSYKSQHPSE
In words: Binding of anti-non-phosphorylated Regnase-1 peptide antibodies to bead-bound full length human Regnase-1 (iQue screener). The following applies: streptavidin-immobilized beads; histograms FIG. 32. How it is done:
(§1) • Biotin-Conjugated FL_Reg1, Biotin-Conjugated Peptide • […], biotin-conjugated peptide • AFPPREYWSEPYPLPPPTC-NH2, and biotinylated BSA (Sigma, A8549) were each bound to streptavidin-immobilized beads.
(§2) These beads were mixed with each anti-Regnase-1 antibody, and they were allowed to react. Thereafter, Anti-Rabbit IgG1 Alexa488 (molecular probes, A21244) was mixed and reacted, and analysis was performed with iQue screener PLUS (intellicyt). Data was analyzed with FlowJo ver10.

Assay [3] concerns the target T3, Peptide 2 ([…]-NH2), partial peptide of human Regnase-1 (Homo sapiens, UniProt Q5D1E8).
T3 construct: made in house; host or cells: chemical synthesis
In words: Binding of anti-non-phosphorylated Regnase-1 peptide antibodies to bead-bound Peptide 2 (iQue screener). Conditions: streptavidin-immobilized beads; histograms FIG. 32. How it is done: as §1, §2

B1: REB0014: anti-Regnase-1 antibody; heavy chain SEQ ID NO: 26, light chain SEQ ID NO: 27 (antibody)
heavy: QSLEESGGGLVKPGGTLTLTCKASGIDFSSYYYMCWVRQAPGKGLEWIACIYSGDGSSYYVSWANGRFTISKTSSATVTLQMTSLTAADTATYFCARDLGNLWGPGTLVTVSSGQPKAPSVFPLAPCCGDTPSSTVTLGCLVKGYLPEPVTVTWNSGTLTNGVRTFPSVRQSSGLYSLSSVVSVTSSSQPVTCNVAHPATNTKVDKTVAPSTCSKPTCPPPELLGGPSVFIFPPKPKDTLMISRTPEVTCVVVDVSQDDPEVQFTWYINNEQVRTARPPLREQQFNSTIRVVSTLPITHQDWLRGKEFKCKVHNKALPAPIEKTISKARGQPLEPKVYTMGPPREELSSRSVSLTCMINGFYPSDISVEWEKNGKAEDNYKTTPAVLDSDGSYFLYNKLSVPTSEWQRGDVFTCSVMHEALHNHYTQKSISRSPGK
light: QVLTQTPASVSAAVGGTVTINCQASQSVYKNSGLSWFQQKPGQSPKRLIYSASTLDSGVPSRFKGSGSGTQFTLTISDVQCDDAATYYCLGIYVCSSVDCGAFGGGTEVVVKGDPVAPTVLIFPPAADQVATGTVTIVCVANKYFPDVTVTWEVDGTTQTTGIENSKTPQNSADCTYNLSSTLTLTSTQYNSHKEYTCKVTQGTTSVVQSFNRGDC
Take B1: in assay [1], the “density of the phosphorylated Regnase-1 band in TBK1 treatment” value (“density” for short) was “decreased”. Besides, the “binding to FL_Reg1 compared with biotinylated BSA” value in assay [2] is “bound more strongly”. Also, the “binding to Peptide 2 compared with biotinylated BSA” value in assay [3] is “bound more strongly”.

B2: REB0022: anti-Regnase-1 antibody; heavy chain SEQ ID NO: 28, light chain SEQ ID NO: 29 (antibody)
heavy: QEQLEESGGDLVKPEGSLTLTCTASGGSFSSRYWMCWVRQAPGKGLEWIACIVIGDRNNYYASWAKGRFTISKTSSTTVTLQMTSLTAADTATYFCARWHSSTAPSLWGPGTLVTVSSGQPKAPSVFPLAPCCGDTPSSTVTLGCLVKGYLPEPVTVTWNSGTLTNGVRTFPSVRQSSGLYSLSSVVSVTSSSQPVTCNVAHPATNTKVDKTVAPSTCSKPTCPPPELLGGPSVFIFPPKPKDTLMISRTPEVTCVVVDVSQDDPEVQFTWYINNEQVRTARPPLREQQFNSTIRVVSTLPITHQDWLRGKEFKCKVHNKALPAPIEKTISKARGQPLEPKVYTMGPPREELSSRSVSLTCMINGFYPSDISVEWEKNGKAEDNYKTTPAVLDSDGSYFLYNKLSVPTSEWQRGDVFTCSVMHEALHNHYTQKSISRSPGK
light: DVVMTQTPASVSEPVGGTVTINCQASQSISSYLSWYQQKPGQPPKLLIYKASTLASGVSSRFKGSGSGTEFTLTISDLECADAATYYCQCSYYVSGFVFGGGTEVVVKGDPVAPTVLIFPPAADQVATGTVTIVCVANKYFPDVTVTWEVDGTTQTTGIENSKTPQNSADCTYNLSSTLTLTSTQYNSHKEYTCKVTQGTTSVVQSFNRGDC
B2: in assay [1], the “density” value is “decreased”. For the same molecule, the “binding to FL_Reg1 compared with biotinylated BSA” value in assay [2] is “bound more strongly”. The “binding to Peptide 2 compared with biotinylated BSA” value in assay [3] is “bound more strongly”.

B3: REB0007: anti-Regnase-1 antibody; heavy chain SEQ ID NO: 24, light chain SEQ ID NO: 25 (antibody)
heavy: QEQLEESGGDLVKPEGSLTLTCTASGFSFNSRYWICWVRQAPGKGLEWIGCIVSGDSNTYYASWAKGRFTISKTSSTTVTLQMTSLTAADTATYFCARWYTSSRPGLWGPGTLVTVSSGQPKAPSVFPLAPCCGDTPSSTVTLGCLVKGYLPEPVTVTWNSGTLTNGVRTFPSVRQSSGLYSLSSVVSVTSSSQPVTCNVAHPATNTKVDKTVAPSTCSKPTCPPPELLGGPSVFIFPPKPKDTLMISRTPEVTCVVVDVSQDDPEVQFTWYINNEQVRTARPPLREQQFNSTIRVVSTLPITHQDWLRGKEFKCKVHNKALPAPIEKTISKARGQPLEPKVYTMGPPREELSSRSVSLTCMINGFYPSDISVEWEKNGKAEDNYKTTPAVLDSDGSYFLYNKLSVPTSEWQRGDVFTCSVMHEALHNHYTQKSISRSPGK
light: DVVMTQTPASVSEPVGGTVTIKCQASQSISSYLSWYQQKPGQPPKLLIYSATNLASGVSSRFKGSRFGTEFTLTISDLECDDAATYYCQCSYYVSGFAFGGGTEVVVKGDPVAPTVLIFPPAADQVATGTVTIVCVANKYFPDVTVTWEVDGTTQTTGIENSKTPQNSADCTYNLSSTLTLTSTQYNSHKEYTCKVTQGTTSVVQSFNRGD
With B3, the “density” value in assay [1] is on record as “decreased”. The “binding to FL_Reg1 compared with biotinylated BSA” value in assay [2] is reported as “bound more strongly”. In addition, the “binding to Peptide 2 compared with biotinylated BSA” value in assay [3] is recorded as “bound more strongly”.
